Here are results for 20 sequences from the DeepSol protein solubility set.

The nature of this data set: soluble on expression in E. coli; label from the status in PepcDB or PDB records.
For the sequence “MKFSESVPLYKQPLSIPAEQLPQPDLNRNLPLSKYFLMMKTPEIGFQKAEVRDVLLRKVVLNEIEKIPAIWNCKNTYNANKLYPEVAVQVYRRTGTLLHTKMVQMVFKTAKDSLRNRLRDAISRKGLNEVDTEAHLLEWEYYPFVRFYREVSEGWEDRMRKTKQLEKREPAGGVGIVGDDENSMDVEEEPYENPDIIWDDVADPESPTTSMSSTLTSTQGTFTDYHPEEPYHNPEPPLIHPTLEYAAMKTASLQRNQQNKHVMEVRHGSETRTVVVMPTEPPRQQLNAPDFAEEMLQVTYQATRIAREQPERVKLLRKALFDTVLAFDQKEYNCVADLYRDLAEKSSR”, the “soluble on expression in E. coli” value is “not soluble”.

Turning to “SNAMHILVTGFAPFDNQNINPSWEAVTQLEDIIGTHTIDKLKLPTSFKKVDNIINKTLASNHYDVVLAIGQAGGRNAITPERVAINIDDARIPDNDDFQPIDQAIHLDGAPAYFSNLPVKAMTQSIINQGLPGALSNSAGTFVCNHTLYHLGYLQDKHYPHLRFGFIHVPYIPEQVIGKPDTPSMPLEKIVAGLTAAIEAISNDEDLHLALGTTE”, the “soluble on expression in E. coli” value is reported as “soluble”. In the case of “MFKKLLHSLFAGLTFMAAVAAVPAHAQEADAQTTVKTAVDDVLATIKGDSDLRSGNMQKVFQLVDQKIVPRADFKRTTQIAMGRFWSQATPEQQQQIQDGFKTLLVRTYAGALANVRNQTVSYKPFRAAADDTDVVVRSTVNNNGEPVALDYRMEKSANGWKVYDINISGLWLSETYKNQFAEVISKRGGVSGLVQFLDERNAQLAKGPAKLEHHHHHH” it was “soluble”; in that of “MGSDKIHHHHHHMQDYYSTLIGWMIPISRAMEAHQIDLTTALKECNISQDVMTDQESRIAAEKFYNLIEYCNKKLGRHDFSILIAEQFHPGMFHALGYAMMSSNTLQDALDRIAHYKRVVSNTCQLVTYESNNQLVFEMNIFTYEGTNRPVLSLATVETFLATIIRFARELVTLDFSPEKICFAYQKPAHDVTYLEEFFNCDIEFNSDKNAIIFNFEQAQEKLMCGNPLITHSHEKMLDEFMARIDKNDLSHVIKNKIFDLLPLGAPSQIVIAEDLGMSLRNLQRKLQEQGTSYKEILESTRKKLAMDYIVQQHLSLSEIGYLVGFSSVGNFNRAFKRWTNQTPGEYRQSKKT”, “not soluble”. With “HMSVILDTKGEPVSNAADAYYLVPVSHGEGGLALAKVGNEAEPKAVVLDPHHRPGLTVRFETPLAIAIITESFFLNIKFVPSSSDSEVWDVSKQYPIGLAVKVTDTKSFVGPFRVEKEGEGYKIVYYPDRGQTGLDIGLVHRNDKYYLAATEGEPFVFKIRKATYE”, the “soluble on expression in E. coli” value is “soluble”. The value for “MSYAKVSHWQMASTEQLIIPPNNDPRPDDQLVIVVVTADGIASPIPLNVSRREVIRQVEMLNRNLTAANRGDNYQGQASQLYDWFIKPIKLILENKKIENISFILDRGLRSLPMATMYDRQSGQYLIEDYSVGLMPSLSLTNRDYAPLTGAQILAMGAEEFANQNPLPAAAVEVDTITNQLWRGSAFLNDRFTVDNFVQSLATKEYRLVHLATHGEFLPGNRNNSFVVFSDRSLDLDEFANVGLDKPIDLMVLSACRTAVGDFDAELGFAGLAVKTGVKTAIGSLWYVSDEATFALMTSFYDRLQPAPIKAKALQQAQLSLLRGEIRVVDGNLVLGDGTNISLADLPADIRQRLATQDLSHPYFWSGFTLVGSPWLEHHHHHH” was “not soluble”; that for “MMLNAWHLPVPPFVKQSKDQLLITLWLTGEDPPQRIMLRTEHDNEEMSVPMHKQRSQPQPGVTAWRAAIDLSSGQPRRRYSFKLLWHDRQRWFTPQGFSRMPPARLEQFAVDVPDIGPQWAADQIFYQIFPDRFARSLPREAEQDHVYYHHAAGQEIILRDWDEPVTAQAGGSTFYGGDLDGISEKLPYLKKLGVTALYLNPVFKAPSVHKYDTEDYRHVDPQFGGDGALLRLRHNTQQLGMRLVLDGVFNHSGDSHAWFDRHNRGTGGACHNPESPWRDWYSFSDDGTALDWLGYASLPKLDYQSESLVNEIYRGEDSIVRHWLKAPWNMDGWRLDVVHMLGEAGGARNNMQHVAGITEAAKETQPEAYIVGEHFGDARQWLQADVEDAAMNYRGFTFPLWGFLANTDISYDPQQIDAQTCMAWMDNYRAGLSHQQQLRMFNQLDSHDTARFKTLLGRDIARLPLAVVWLFTWPGVPCIYYGDEVGLDGKNDPFCRKPFPWQVEKQDTALFALYQRMIALRKKSQALRHGGCQVLYAEDNVVVFVRVLNQQRVLVAINRGEACEVVLPASPFLNAVQWQCKEGHGQLTDGILALPAISATVWMN” was “soluble”. In the case of “MKLRLSALALGTTLLVGCASSGTDQQGRSDPLEGFNRTMYNFNFNVLDPYIVRPVAVAWRDYVPQPARNGLSNFTGNLEEPAVMVNYFLQGDPYQGMVHFTRFFLNTILGMGGFIDVAGMANPKLQRTEPHRFGSTLGHYGVGYGPYVQLPFYGSFTLRDDGGDMADGLYPVLSWLTWPMSVGKWTLEGIETRAQLLDSDGLLRQSSDPYIMVREAYFQRHDFIANGGELKPQENPNAQAIQDDLKDIDSE” it was “not soluble”; in that of “MSLQYFKVRDEIRSMVSDSVDEIVDGVSKTTAEVINGRKSIAQYATSLIENNPEPDNVRTIISQPLIKNTFLLVGFGLEKDGSNINNDPSWNPGPTWDPRVRPWYKDAKNAGKLVITAPYADSASGEILVSVATPVKDSATGQFLGSIFYDVSLAELAELVNEVKLFDAGYVFIVSEDGTTIAHPKKEFNGKPMSEFLGESKINVDTHQVIINGKPYAVSFSDVEGEDWYVGVVIDEEIAYAALDELRRSEGHHHHHH”, “soluble”. In the case of “MSLNGSRRIPQPIRWAMVGGGSQSQIGYIHRCAALRDNTFVLVAGAFDIDPIRGSAFGEQLGVDSERCYADYLSMFEQEARRADGIQAVSIATPNGTHYSITKAALEAGLHVVCEKPLCFTVEQAENLRELSHKHNRIVGVTYGYAGHQLIEQAREMIAAGELGDVRMVHMQFAHGFHSAPVEAQSQATQWRVDPRQAGPSYVLGDVGTHPLYLSEVMLPDLKIKRLMCSRQSFVASRAPLEDNAYTLMEYEGGAMGMVWSSAVNAGSMHGQKIRVIGSRASLEWWDERPNQLSFEVQGQPAQILERGMGYLHPNALIDDRIGGGHPEGLFEAWANLYYRFALAMDATDRSDTQALSAVRYPGIDAGVEGVRWVERCVLSADNDSIWVAYEGHHHHHH” it was “soluble”. On to “TDLSAQKRLAADVLDVGKNRVWFNPERQGDIADAITREDVRELVDEGAIQAKDKKGNSRGRARERQKKRAKGHQKGAGSRKGKAGARQNSKEDWESRIRAQRTKLRELRDEGTLSSSQYRDLYDKAGGGEFDSVADLERYIDANHGDA”, for which the “soluble on expression in E. coli” value is given as “soluble”.

Consider “MSLFINMYRQLLSLPLSALVKNNPIPANPIEELSLNIHQPIVYVLPYTSQTDFVIFRRNCLALGLPDPAEKNEINGVKLPRYVYLDEGRRIFKSKGAKDETTTIFNKYLELHRTSESLDVQLIPVSVLWGRSPGQEDKSDLPNLRLLNGIQKTFAAIWFGRDTFVRFSQAVSLRYMVVEHGSDEKIAQKLARVAKMHFAKQRISATGPRLPNRQAMFNKLLQSEAIRRAIEDEAKSKNISIEKAQKEAYKILDEIAADVSHSSLRAVDRFLRWLWNKLYSGINVQNSNRVRKLALEGHEIVYVPCHRSHIDYLLLSYVLYHQGLVPPHIAAGINLNFWPIGRMFRSWGAFFIRRTFKGNRLYSAIFREYLSELFHRGYSVEYFIEGGRSRTGRLLAPKTGMMSMTLQALQHSQTRPISIVPVYVGYEHVLEVDTYAKELRGAAKEKENAGLVLRVIKKLRNLGQGFVNFGEPITLSNYLSQHFPDWKEQNHEEKPQWFTPAVNNISKQVMININKAAAVNSMNLVGTALLSSRQRALSREQLLEQLSSYQQLLQNVPYSTDVVLPNVTPQAMLEHVLALDRIGVLIEKDNFGEIVRLERSSAVLMTYYRNNIQHLFVLPSLVASIILHYEAIQKDLLLDAIRKIYPFLQGELFLHFNEDELNVQIHQIINEFARQSVINSNDNFLSINKSKVRILQLWSAGMLEILQRYYITVTILQKQPAISRAELEKESQLVAQRLSVLHGINAPEFFDKAVFSSFIANLKEQRYFDESGYTVLDKIEELASTLSHLISTEICLTVKGTIEKSEDLSSEGHHHHHH”, for which the “soluble on expression in E. coli” value is reported as “soluble”. As to “MTVVIGLTGGIASGKSTVSQMFRELSIPVIDADIIAREVVEKGKPAYNKIVEVFGTEVLQEDGELDRPKLGSVVFYNEEKRLQLNKIVHPAVREEMNRQKEMYIKEGMQAVVLDIPLLFESKLTSLVDRVLVVAVKPHTQLERLMKRNNFSEEEATARIQSQMPLEEKVKNADEVINNDGTIMGTKTQLQAILKKWNIID”, the “soluble on expression in E. coli” value is listed as “not soluble”. In the case of “MENNNSPTNAAEHNQKIDPRNYDDVLSVAASIREQVGEDVARADLGIICGSGLGPIGDTVQDATILPYSKIPGFPTTHVVGHKGNMIFGKLGGKKVVCLQGRFHPYEHNMDLALCTLPVRVMHQLGIKIMIVSNAAGGINAVLRHGDLMLIKDHIFLPALAGFSPLVGCNDPRFGARFVSVHDAYDKQLRQLAIDVGRRSDMTLYEGVYVMSGGPQYESPAEVSLFKTVGADALGMSTCHEVTVARQCGIKVLGFSLITNIANLDADASVEVSHEEVMDIAQQAGERASRFVSDIITEITL” it was “not soluble”; in that of “GSHSMRYFYTAMSRPGRGEPRFIAVGYVDDTQFVRFDSDAASPRTEPRPPWIEQEGPEYWDRNTQIFKTNTQTYRENLRIALRYYNQSEAGSHIIQRMYGCDLGPDGRLLRGHDQSAYDGKDYIALNEDLSSWTAADTAAQITQRKWEAARVAEQLRAYLEGLCVEWLRRYLENGKETLQRADPPKTHVTHHPVSDHEATLRCWALGFYPAEITLTWQRDGEDQTQDTELVETRPAGDRTFQKWAAVVVPSGEEQRYTCHVQHEGLPKPLTLRWEPHH”, “soluble”; in that of “MQRTLNVGVILCESFISNAQNPVNSYIKIYENVRMFEFAIKLLQESRINFQKILLYVLEEQIPLVEKVVAKYENCWVFRSKHNEVEDIYEAKGFIEDKYKIGLKSSKNQASSYYDNCCFVVLEACRPLTSKKVVKNVYEKAMIDGAAVAVLPFERQLVCGDNTKAVRQLKDKGNMNYWRQSSTWELQFPQAYTLNKLNQYHKNLFMKARNMLDLMNISAKNPLSIVDGSAYSFRVVTSLDFEILLGILRNG”, “not soluble”. In the case of “MSRKYFYFDYDYYGMSFCEEEITTEPEEKVAYTSNSGGFADEVTGIPKEGHQSSIGEHSCVMPNTQDTGREEPEETSKVAETSEQSLFRIPRKAYRFTPGQLWELQAVFVENQYPDALKRKELAGLLNVDEQKIKDWFNNKRAKYRKIQREILGGKNITPTQEELRMKTLVESKKIIIFQEQEGDGLFWEHQNIDTQNSPLSLLFS” it was “soluble”; in that of “MISVDTMTNASSTEGISLHHISVSDLDNNCYLLTTESDEGTQGLLIDAADNAPALLDLAESAGARITAVVTTHRHFDHVRALEDVLDTTKATHFASLGDSPRLPRSADTTLGEGDTLRWAGHNLRAHILRGHTQEGLALSIKIDGIYHLFVGDSLFPRGVGKTSTPEEFNQLLSDVKTRLFDVYPDTAVVHPGHGKPTTLGTERPHLEQWRQRGW”, “not soluble”.

For the sequence “MSKELTAKKRAALNRLKTVRGHLDGIVRMLESDAYCVDVMKQISAVQSSLERANRVMLHNHLETCFSTAVLDGHGQAAIEELIDAVKFTPALTGPHARLGGAAVGESATEEPMPDASNM”, the “soluble on expression in E. coli” value is given as “soluble”. With “MSFVAYEELIKEGDTAILSLGHGAMVAVRVQRGAQTQTRHGVLRHSVDLIGRPFGSKVTCGRGGWVYVLHPTPELWTLNLPHRTQILYSTDIALITMMLELRPGSVVCESGTGSGSVSHAIIRTIAPTGHLHTVEFHQQRAEKAREEFQEHRVGRWVTVRTQDVCRSGFGVSHVADAVFLDIPSPWEAVGHAWDALKVEGGRFCSFSPCIEQVQRTCQALAARGFSELSTLEVLPQVYNVRTVSLPPPDLGTGTDGPAGSDTSPFRSGTPMKEAVGHTGYLTFATKTPG”, the “soluble on expression in E. coli” value is on record as “soluble”.
